IntAct's records for PubMed 35512704

B1: Speckle-type POZ protein (Homo sapiens), O43791 (parent)
chain: MSRVPSPPPPAEMSSGPVAESWCYTQIKVVKFSYMWTINNFSFCREEMGEVIKSSTFSSGANDKLKWCLRVNPKGLDEESKDYLSLYLLLVSCPKSEVRAKFKFSILNAKGEETKAMESQRAYRFVQGKDWGFKKFIRRDFLLDEANGLLPDDKLTLFCEVSVVQDSVNISGQNTMNMVKVPECRLADELGGLWENSRFTDCCLCVAGQEFQAHKAILAARSPVFSAMFEHEMEESKKNRVEINDVEPEVFKEMMCFIYTGKAPNLDKMADDLLAAADKYALERLKVMCEDALCSNLSVENAAEILILADLHSADQLKTQAVDFINYHASDVLETSGWKSMVVSHPHLVAEAYRSLASAQCPFLGPPRKRLKQS

Variants of: B1
Settings: with fgfr4_human FGFR4, P22455

Variant | effect of a mutation on the interaction
F133L | with no effect

Variants of: B1
Settings: with fumh_human FH

Variant | effect of a mutation on the interaction
F133L | with no effect

Variants of: B1
Settings: with fzr1_human FZR1, Q9UM11

Variant | effect of a mutation on the interaction
F133L | with no effect

Variants of: B1
Settings: with gbra6_human GABRA6, Q16445
gbra6_human GABRA6, Q16445, sequence (Q16445 whole entry): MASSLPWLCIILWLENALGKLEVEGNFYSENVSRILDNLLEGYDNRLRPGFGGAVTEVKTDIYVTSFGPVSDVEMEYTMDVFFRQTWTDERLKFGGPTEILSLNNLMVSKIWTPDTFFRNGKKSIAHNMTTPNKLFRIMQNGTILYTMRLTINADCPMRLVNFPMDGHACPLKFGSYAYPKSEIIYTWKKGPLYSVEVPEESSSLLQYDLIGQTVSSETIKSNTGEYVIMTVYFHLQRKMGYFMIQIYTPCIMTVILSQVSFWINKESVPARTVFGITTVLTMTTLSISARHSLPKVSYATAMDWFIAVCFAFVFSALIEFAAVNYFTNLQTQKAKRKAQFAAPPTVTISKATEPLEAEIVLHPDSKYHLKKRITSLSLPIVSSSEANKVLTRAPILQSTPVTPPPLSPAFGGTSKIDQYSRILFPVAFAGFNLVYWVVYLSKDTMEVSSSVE

Variant | effect of a mutation on the interaction
F133L | with no effect

Variants of: B1
Settings: with gata1_human GATA1, P15976

Variant | effect of a mutation on the interaction
F133L | with no effect

Variants of: B1
Settings: with p66b_human GATAD2B

Variant | effect of a mutation on the interaction
F133L | with no effect

Variants of: B1
Settings: with gna11_human GNA11, P29992

Variant | effect of a mutation on the interaction
F133L | with no effect

Variants of: B1
Settings: with gna13_human GNA13, Q14344

Variant | effect of a mutation on the interaction
F133L | with no effect

Variants of: B1
Settings: with gnaq_human GNAQ

Variant | effect of a mutation on the interaction
F133L | with no effect

Variants of: B1
Settings: with grm1_human GRM1, Q13255
grm1_human GRM1, Q13255, sequence (Q13255 whole entry, looked up): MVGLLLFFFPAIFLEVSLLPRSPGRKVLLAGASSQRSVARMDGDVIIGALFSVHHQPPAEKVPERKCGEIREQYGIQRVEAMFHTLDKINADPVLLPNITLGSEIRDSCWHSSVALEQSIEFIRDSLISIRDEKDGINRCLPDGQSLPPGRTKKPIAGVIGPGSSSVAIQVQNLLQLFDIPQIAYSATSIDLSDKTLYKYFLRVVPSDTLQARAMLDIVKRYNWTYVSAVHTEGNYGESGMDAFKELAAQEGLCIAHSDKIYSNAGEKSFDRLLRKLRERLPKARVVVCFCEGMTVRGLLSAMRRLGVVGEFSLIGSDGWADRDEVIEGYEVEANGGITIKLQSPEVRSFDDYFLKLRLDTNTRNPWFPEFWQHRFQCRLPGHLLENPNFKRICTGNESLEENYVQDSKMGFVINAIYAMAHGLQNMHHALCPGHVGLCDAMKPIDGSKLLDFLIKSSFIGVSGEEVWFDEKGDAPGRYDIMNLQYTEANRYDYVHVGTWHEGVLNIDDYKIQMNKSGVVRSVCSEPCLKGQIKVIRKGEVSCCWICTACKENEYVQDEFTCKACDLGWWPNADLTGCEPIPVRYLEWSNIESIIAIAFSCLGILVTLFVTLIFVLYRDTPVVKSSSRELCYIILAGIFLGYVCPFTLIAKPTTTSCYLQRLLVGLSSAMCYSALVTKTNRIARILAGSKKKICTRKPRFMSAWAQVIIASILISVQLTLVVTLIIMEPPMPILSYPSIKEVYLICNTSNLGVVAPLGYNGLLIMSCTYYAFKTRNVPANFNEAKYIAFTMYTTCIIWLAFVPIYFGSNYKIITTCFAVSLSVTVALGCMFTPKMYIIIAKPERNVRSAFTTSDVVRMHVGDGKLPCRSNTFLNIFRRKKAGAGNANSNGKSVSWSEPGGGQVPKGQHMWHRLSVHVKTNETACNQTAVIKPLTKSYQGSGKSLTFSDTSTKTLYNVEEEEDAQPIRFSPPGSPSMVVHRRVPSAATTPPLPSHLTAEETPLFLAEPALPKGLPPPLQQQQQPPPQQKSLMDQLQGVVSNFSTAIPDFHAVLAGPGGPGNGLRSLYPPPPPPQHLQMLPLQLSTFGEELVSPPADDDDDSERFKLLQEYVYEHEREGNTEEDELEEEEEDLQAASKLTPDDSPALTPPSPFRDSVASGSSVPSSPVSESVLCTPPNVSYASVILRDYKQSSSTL

Variant | effect of a mutation on the interaction
F133L | with no effect

Variants of: B1
Settings: with grm3_human GRM3, Q14832

Variant | effect of a mutation on the interaction
F133L | with no effect

Variants of: B1
Settings: with gsk3b_human GSK3B

Variant | effect of a mutation on the interaction
F133L | with no effect

Variants of: B1
Settings: with gtpb4_human GTPBP4, Q9BZE4

Variant | effect of a mutation on the interaction
F133L | with no effect

Variants of: B1
Settings: with h33_human H3-3A

Variant | effect of a mutation on the interaction
F133L | with no effect

Variants of: B1
Settings: with hdac1_human HDAC1, Q13547

Variant | effect of a mutation on the interaction
F133L | with no effect

Variants of: B1
Settings: with hdac3_human HDAC3, O15379

Variant | effect of a mutation on the interaction
F133L | with no effect

Variants of: B1
Settings: with hgf_human HGF

Variant | effect of a mutation on the interaction
F133L | with no effect

Variants of: B1
Settings: with h31_human H3C1, P68431

Variant | effect of a mutation on the interaction
F133L | with no effect

Variants of: B1
Settings: with hlab_human HLA-B

Variant | effect of a mutation on the interaction
F133L | with no effect

Variants of: B1
Settings: with hnf1a_human HNF1A

Variant | effect of a mutation on the interaction
F133L | with no effect

Variants of: B1
Settings: with igf1r_human IGF1R

Variant | effect of a mutation on the interaction
F133L | with no effect

Variants of: B1
Settings: with il7ra_human IL7R

Variant | effect of a mutation on the interaction
F133L | with no effect

Variants of: B1
Settings: with int12_human INTS12, Q96CB8

Variant | effect of a mutation on the interaction
F133L | with no effect

Variants of: B1
Settings: with ist1_human IST1, P53990

Variant | effect of a mutation on the interaction
F133L | with no effect

Variants of: B1
Settings: with jak3_human JAK3, P52333

Variant | effect of a mutation on the interaction
F133L | with no effect

Variants of: B1
Settings: with kat2a_human KAT2A

Variant | effect of a mutation on the interaction
F133L | with no effect

Variants of: B1
Settings: with kdm5a_human KDM5A

Variant | effect of a mutation on the interaction
F133L | with no effect

Variants of: B1
Settings: with kdm5c_human KDM5C

Variant | effect of a mutation on the interaction
F133L | with no effect

Variants of: B1
Settings: with kdm6a_human KDM6A

Variant | effect of a mutation on the interaction
F133L | with no effect

Variants of: B1
Settings: with vgfr2_human KDR

Variant | effect of a mutation on the interaction
F133L | with no effect

Variants of: B1
Settings: with lims1_human LIMS1, P48059
lims1_human LIMS1, P48059, sequence (P48059 whole entry): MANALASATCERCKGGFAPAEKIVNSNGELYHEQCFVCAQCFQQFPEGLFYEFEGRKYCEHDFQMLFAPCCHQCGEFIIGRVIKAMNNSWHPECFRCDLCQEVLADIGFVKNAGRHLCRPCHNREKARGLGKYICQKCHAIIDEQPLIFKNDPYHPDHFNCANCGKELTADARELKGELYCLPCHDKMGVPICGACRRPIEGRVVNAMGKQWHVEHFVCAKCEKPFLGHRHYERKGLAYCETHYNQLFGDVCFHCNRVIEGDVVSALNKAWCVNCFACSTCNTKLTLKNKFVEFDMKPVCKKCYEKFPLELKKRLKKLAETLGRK

Variant | effect of a mutation on the interaction
F133L | with no effect

Variants of: B1
Settings: with maga6_human MAGEA6, P43360
maga6_human MAGEA6, P43360, sequence (P43360 whole entry): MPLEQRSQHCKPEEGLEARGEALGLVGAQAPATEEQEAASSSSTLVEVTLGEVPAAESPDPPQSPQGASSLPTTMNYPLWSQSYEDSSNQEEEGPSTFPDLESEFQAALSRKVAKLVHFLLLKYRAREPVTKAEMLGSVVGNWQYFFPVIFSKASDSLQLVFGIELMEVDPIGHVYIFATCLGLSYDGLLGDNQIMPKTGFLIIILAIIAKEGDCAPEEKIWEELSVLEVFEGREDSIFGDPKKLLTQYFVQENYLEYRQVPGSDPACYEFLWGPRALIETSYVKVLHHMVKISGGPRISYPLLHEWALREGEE

Variant | effect of a mutation on the interaction
F133L | with no effect

Variants of: B1
Settings: with m3k1_human MAP3K1, Q13233

Variant | effect of a mutation on the interaction
F133L | with no effect

Variants of: B1
Settings: with mk10_human MAPK10, P53779

Variant | effect of a mutation on the interaction
F133L | with no effect

Variants of: B1
Settings: with mk14_human MAPK14, Q16539

Variant | effect of a mutation on the interaction
F133L | with no effect

Variants of: B1
Settings: with mk03_human MAPK3, P27361
mk03_human MAPK3, P27361, sequence (P27361 whole entry): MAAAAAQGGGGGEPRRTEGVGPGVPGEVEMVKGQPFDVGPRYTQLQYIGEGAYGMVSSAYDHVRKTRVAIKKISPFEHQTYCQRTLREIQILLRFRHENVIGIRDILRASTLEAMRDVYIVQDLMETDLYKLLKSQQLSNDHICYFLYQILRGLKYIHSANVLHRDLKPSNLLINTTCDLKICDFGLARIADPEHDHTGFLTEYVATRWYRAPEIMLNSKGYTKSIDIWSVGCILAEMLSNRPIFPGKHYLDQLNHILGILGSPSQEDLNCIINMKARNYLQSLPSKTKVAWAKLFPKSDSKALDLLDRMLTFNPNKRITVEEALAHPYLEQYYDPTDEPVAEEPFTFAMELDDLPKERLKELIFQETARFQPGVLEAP

Variant | effect of a mutation on the interaction
F133L | with no effect

Variants of: B1
Settings: with mk04_human MAPK4, P31152
mk04_human MAPK4, P31152, sequence (P31152 whole entry): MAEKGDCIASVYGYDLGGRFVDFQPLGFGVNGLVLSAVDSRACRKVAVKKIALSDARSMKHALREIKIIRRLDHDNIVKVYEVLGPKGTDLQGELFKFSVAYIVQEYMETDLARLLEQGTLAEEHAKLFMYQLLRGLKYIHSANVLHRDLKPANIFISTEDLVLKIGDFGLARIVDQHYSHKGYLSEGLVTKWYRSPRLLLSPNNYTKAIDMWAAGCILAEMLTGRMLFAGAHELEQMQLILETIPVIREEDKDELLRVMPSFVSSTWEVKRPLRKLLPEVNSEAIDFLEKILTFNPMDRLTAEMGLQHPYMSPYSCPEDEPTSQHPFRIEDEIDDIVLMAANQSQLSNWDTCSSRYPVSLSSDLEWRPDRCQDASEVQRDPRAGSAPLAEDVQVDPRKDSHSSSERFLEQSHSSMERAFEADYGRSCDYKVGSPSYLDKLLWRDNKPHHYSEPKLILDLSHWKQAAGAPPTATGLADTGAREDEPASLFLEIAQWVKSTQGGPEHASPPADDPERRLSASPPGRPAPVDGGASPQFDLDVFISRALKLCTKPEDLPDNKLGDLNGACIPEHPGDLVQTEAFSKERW

Variant | effect of a mutation on the interaction
F133L | with no effect

Variants of: B1
Settings: with mk06_human MAPK6, Q16659

Variant | effect of a mutation on the interaction
F133L | with no effect

Variants of: B1
Settings: with mk07_human MAPK7, Q13164
mk07_human MAPK7, Q13164, sequence (Q13164 whole entry, looked up): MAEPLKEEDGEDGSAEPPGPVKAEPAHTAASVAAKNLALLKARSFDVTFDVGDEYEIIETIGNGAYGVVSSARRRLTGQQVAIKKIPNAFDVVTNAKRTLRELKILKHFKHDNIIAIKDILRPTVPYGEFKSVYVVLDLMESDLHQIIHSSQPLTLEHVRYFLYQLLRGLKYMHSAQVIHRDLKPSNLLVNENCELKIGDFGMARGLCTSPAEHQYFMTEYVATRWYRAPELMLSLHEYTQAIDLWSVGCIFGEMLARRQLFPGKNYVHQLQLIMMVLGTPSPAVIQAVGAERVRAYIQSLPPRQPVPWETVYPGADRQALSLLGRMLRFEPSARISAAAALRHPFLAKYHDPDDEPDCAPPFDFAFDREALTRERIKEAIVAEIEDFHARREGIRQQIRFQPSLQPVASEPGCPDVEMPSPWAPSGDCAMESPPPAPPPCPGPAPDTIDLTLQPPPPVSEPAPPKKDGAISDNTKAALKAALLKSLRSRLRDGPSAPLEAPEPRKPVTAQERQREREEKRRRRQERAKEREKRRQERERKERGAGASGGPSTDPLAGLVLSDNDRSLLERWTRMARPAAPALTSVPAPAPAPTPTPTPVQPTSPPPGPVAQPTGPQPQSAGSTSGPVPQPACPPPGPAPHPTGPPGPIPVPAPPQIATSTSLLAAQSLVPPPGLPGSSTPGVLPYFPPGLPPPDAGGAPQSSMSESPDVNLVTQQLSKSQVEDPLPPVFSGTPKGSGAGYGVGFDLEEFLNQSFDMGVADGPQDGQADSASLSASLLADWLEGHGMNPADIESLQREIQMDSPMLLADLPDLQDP

Variant | effect of a mutation on the interaction
F133L | with no effect

Variants of: B1
Settings: with sin1_human MAPKAP1, Q9BPZ7

Variant | effect of a mutation on the interaction
F133L | with no effect

Variants of: B1
Settings: with mcl1_human MCL1, Q07820

Variant | effect of a mutation on the interaction
F133L | with no effect

Variants of: B1
Settings: with mdm2_human MDM2, Q00987
mdm2_human MDM2, Q00987, sequence (Q00987 whole entry, looked up): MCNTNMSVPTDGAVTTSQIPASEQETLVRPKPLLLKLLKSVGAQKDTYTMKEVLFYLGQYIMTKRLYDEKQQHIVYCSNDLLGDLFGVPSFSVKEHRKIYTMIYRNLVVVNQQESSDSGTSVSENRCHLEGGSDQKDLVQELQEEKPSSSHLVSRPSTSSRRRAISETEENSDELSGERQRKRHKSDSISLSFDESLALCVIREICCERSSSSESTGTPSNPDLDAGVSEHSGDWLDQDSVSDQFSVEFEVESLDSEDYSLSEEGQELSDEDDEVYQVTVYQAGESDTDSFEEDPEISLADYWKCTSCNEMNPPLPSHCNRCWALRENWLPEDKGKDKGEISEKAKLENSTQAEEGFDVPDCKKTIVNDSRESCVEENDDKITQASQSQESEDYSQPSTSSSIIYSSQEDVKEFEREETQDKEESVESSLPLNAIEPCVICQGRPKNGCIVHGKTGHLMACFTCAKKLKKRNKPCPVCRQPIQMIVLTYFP

Variant | effect of a mutation on the interaction
F133L | with no effect

Variants of: B1
Settings: with mef2a_human MEF2A

Variant | effect of a mutation on the interaction
F133L | with no effect

Variants of: B1
Settings: with mlh1_human MLH1, P40692

Variant | effect of a mutation on the interaction
F133L | with no effect

Variants of: B1
Settings: with mtor_human MTOR

Variant | effect of a mutation on the interaction
F133L | with no effect

Variants of: B1
Settings: with mybb_human MYBL2, P10244

Variant | effect of a mutation on the interaction
F133L | with no effect

Variants of: B1
Settings: with myc_human MYC

Variant | effect of a mutation on the interaction
F133L | with no effect

Variants of: B1
Settings: with mycn_human MYCN

Variant | effect of a mutation on the interaction
F133L | with no effect

Variants of: B1
Settings: with ncoa3_human NCOA3, Q9Y6Q9

Variant | effect of a mutation on the interaction
F133L | with no effect

Variants of: B1
Settings: with ikba_human NFKBIA

Variant | effect of a mutation on the interaction
F133L | with no effect

Variants of: B1
Settings: with notc2_human NOTCH2, Q04721

Variant | effect of a mutation on the interaction
F133L | with no effect

Variants of: B1
Settings: with nox1_human NOX1, Q9Y5S8

Variant | effect of a mutation on the interaction
F133L | with no effect

Variants of: B1
Settings: with ntrk2_human NTRK2, Q16620

Variant | effect of a mutation on the interaction
F133L | with no effect

Variants of: B1
Settings: with ntrk3_human NTRK3, Q16288

Variant | effect of a mutation on the interaction
F133L | with no effect

Variants of: B1
Settings: with pak3_human PAK3, O75914

Variant | effect of a mutation on the interaction
F133L | with no effect

Variants of: B1
Settings: with prkn_human PRKN

Variant | effect of a mutation on the interaction
F133L | with no effect

Variants of: B1
Settings: with pax5_human PAX5, Q02548

Variant | effect of a mutation on the interaction
F133L | with no effect

Variants of: B1
Settings: with pcbp1_human PCBP1, Q15365
pcbp1_human PCBP1, Q15365, sequence (Q15365 whole entry): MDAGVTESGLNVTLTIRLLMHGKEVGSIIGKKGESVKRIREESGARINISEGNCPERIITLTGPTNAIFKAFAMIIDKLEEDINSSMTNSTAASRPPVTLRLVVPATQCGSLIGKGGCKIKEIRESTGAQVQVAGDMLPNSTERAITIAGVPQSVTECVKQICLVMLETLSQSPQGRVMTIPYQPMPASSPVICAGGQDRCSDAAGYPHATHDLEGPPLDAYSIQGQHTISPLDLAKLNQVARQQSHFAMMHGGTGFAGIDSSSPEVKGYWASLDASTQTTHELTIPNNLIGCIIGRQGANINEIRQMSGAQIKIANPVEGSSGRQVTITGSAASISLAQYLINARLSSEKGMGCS

Variant | effect of a mutation on the interaction
F133L | with no effect

Variants of: B1
Settings: with pdcd1_human PDCD1, Q15116

Variant | effect of a mutation on the interaction
F133L | with no effect

Variants of: B1
Settings: with pgfrb_human PDGFRB

Variant | effect of a mutation on the interaction
F133L | with no effect

Variants of: B1
Settings: with pdk1_human PDK1, Q15118

Variant | effect of a mutation on the interaction
F133L | with no effect
